Molecular target: human CD30 (tumor necrosis factor receptor superfamily, member 8 (TNFRSF8)) (human) (UniProt P28908)
Assay: cell-based or functional assay

5F11-CD8BBZ CAR, sequence (chain): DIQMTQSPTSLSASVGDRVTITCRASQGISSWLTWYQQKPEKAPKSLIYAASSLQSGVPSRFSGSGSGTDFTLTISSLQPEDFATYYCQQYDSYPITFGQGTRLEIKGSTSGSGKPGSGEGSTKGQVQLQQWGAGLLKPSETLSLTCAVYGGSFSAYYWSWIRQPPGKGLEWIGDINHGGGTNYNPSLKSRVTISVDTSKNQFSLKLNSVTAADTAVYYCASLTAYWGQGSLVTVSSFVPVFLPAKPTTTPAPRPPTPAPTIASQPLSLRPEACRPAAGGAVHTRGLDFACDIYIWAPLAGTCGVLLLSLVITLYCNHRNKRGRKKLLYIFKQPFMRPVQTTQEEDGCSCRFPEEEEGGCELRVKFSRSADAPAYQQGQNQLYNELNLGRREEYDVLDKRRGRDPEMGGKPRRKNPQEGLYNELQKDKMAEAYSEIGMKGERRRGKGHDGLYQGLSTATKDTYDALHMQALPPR
UniProt P28908, sequence (P28908 19-595): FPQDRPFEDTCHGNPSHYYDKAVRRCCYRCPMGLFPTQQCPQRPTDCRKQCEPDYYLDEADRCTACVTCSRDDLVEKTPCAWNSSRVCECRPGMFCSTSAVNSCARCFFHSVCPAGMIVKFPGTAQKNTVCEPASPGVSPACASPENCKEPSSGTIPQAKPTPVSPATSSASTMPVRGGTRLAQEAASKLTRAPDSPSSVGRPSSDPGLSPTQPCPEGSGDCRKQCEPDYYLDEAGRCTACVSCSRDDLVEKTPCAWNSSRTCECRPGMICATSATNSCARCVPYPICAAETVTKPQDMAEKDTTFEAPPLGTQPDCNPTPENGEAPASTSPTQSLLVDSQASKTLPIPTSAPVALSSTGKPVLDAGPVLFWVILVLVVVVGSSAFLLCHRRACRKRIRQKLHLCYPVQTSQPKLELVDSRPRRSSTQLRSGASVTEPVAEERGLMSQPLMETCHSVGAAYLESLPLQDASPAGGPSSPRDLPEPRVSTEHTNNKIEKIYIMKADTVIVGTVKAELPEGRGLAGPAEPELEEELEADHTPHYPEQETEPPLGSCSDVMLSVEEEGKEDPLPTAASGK
5F11-CD828Z CAR, sequence (chain): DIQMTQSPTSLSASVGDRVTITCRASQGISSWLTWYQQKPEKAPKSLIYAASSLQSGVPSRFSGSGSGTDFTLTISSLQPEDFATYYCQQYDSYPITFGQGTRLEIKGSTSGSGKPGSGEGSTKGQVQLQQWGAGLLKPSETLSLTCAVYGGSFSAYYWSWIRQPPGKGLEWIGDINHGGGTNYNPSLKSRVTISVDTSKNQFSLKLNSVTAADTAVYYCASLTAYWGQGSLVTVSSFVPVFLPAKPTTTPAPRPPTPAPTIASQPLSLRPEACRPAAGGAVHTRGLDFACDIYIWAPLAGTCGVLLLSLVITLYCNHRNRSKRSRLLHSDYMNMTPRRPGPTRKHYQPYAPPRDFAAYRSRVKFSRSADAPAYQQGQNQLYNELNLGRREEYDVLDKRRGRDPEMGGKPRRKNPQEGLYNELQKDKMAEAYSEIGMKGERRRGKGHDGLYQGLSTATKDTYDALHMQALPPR

Molecule	CD107a degranulation, % CD8+CD107a+ cells after 4 h with CD30-bv173 cells (% of live CD3+ lymphocytes)	CD107a degranulation, % CD8-CD107a+ cells after 4 h with CD30-bv173 cells (% of live CD3+ lymphocytes)	antigen-specific IFNγ production on culture with CD30+ HH lymphoma cells	IFNγ released (ELISA) after overnight culture with CD30+ HDLM-2 cells [pg/mL]	IFNγ released (ELISA) after overnight culture with CD30+ SUDHL-1 cells [pg/mL]	CD107a degranulation, % CD8+CD107a+ cells after 4 h with CD30+ SUDHL-1 cells (% of live CD3+ lymphocytes)	CD107a degranulation, % CD8-CD107a+ cells after 4 h with CD30+ SUDHL-1 cells (% of live CD3+ lymphocytes)	IFNγ released (ELISA) on co-culture with CD30+ HH cells [pg/mL]	IFNγ released (ELISA) on co-culture with CD30+ SUDHL-1 cells [pg/mL]	IFNγ released (ELISA) on co-culture with CD30-bv173 cells [pg/mL]	IFNγ released (ELISA) on overnight culture with CD30+ HH cells, 0 µg/mL soluble human CD30 protein added [pg/mL]	IFNγ released (ELISA) on overnight culture with CD30+ HH cells, 0.2 µg/mL soluble human CD30 protein added [pg/mL]	IFNγ released (ELISA) on overnight culture with CD30+ HH cells, 1 µg/mL soluble human CD30 protein added [pg/mL]	IFNγ released (ELISA) on overnight culture with CD30+ HH cells, 5 µg/mL soluble human CD30 protein added [pg/mL]
5F11-CD8BBZ CAR	25.9	12.1	47700											
5F11-CD828Z CAR	30	11.6	34300	3010	2300									
AC10-28Z CAR						6.18	1.34	8140	4850	538				
XmAb2513-28Z CAR						7.72	1.86	4700	2440	388				
5F11-28Z CAR (protein) DIQMTQSPTSLSASVGDRVTITCRASQGISSWLTWYQQKPEKAPKSLIYAASSLQSGVPSRFSGSGSGTDFTLTISSLQPEDFATYYCQQYDSYPITFGQGTRLEIKGSTSGSGKPGSGEGSTKGQVQLQQWGAGLLKPSETLSLTCAVYGGSFSAYYWSWIRQPPGKGLEWIGDINHGGGTNYNPSLKSRVTISVDTSKNQFSLKLNSVTAADTAVYYCASLTAYWGQGSLVTVSSIEVMYPPPYLDNEKSNGTIIHVKGKHLCPSPLFPGPSKPFWVLVVVGGVLACYSLLVTVAFIIFWVRSKRSRLLHSDYMNMTPRRPGPTRKHYQPYAPPRDFAAYRSRVKFSRSADAPAYQQGQNQLYNELNLGRREEYDVLDKRRGRDPEMGGKPRRKNPQEGLYNELQKDKMAEAYSEIGMKGERRRGKGHDGLYQGLSTATKDTYDALHMQALPPR	39.5	6.82	127000	3530	3490	47.4	4.32	78600	25500	3780	23000	18400	19900	18700
